5 variants from PMC7954794 (2021) can be followed below.

To fix the notation:
B1: S. cerevisiae Abp1 (full length; SH3 domain 535-592 mutated) / Hua2 (parent complex)
chain 1: MALEPIDYTTHSREIDAEYLKIVRGSDPDTTWLIISPNAKKEYEPESTGSSFHDFLQLFDETKVQYGLARVSPPGSDVEKIIIIGWCPDSAPLKTRASFAANFAAVANNLFKGYHVQVTARDEDDLDENELLMKISNAAGARYSIQTSSKQQGKASTPPVKKSFTPSKSPAPVSKKEPVKTPSPAPAAKISSRVNDNNDDDDWNEPELKERDFDQAPLKPNQSSYKPIGKIDLQKVIAEEKAKEDPRLVQKPTAAGSKIDPSSDIANLKNESKLKRDSEFNSFLGTTKPPSMTESSLKNDDDKVIKGFRNEKSPAQLWAERKAKQNSGNAETKAEAPKPEVPEDEPEGEPDVKDLKSKFEGLAASEKEEEEMENKFAPPPKKSEPTIISPKPFSKPQEPVKAEEAEQPKTDYKKIGNPLPGMHIEADNEEEPEENDDDWDDDEDEAAQPPLPSRNVASGAPVQKEEPEQEEIAPSLPSRNSIPAPKQEEAPEQAPEEEIEEEAEEAAPQLPSRSSAAPPPPPRRATPEKKPKENPWATAEYDYDAAEDNELTFVENDKIINIEFVDDDWWLGELEKDGSKGLFPSNYVSLGN
chain 2: MQQTKFGKMYLDHDSVVEYSEDEIVEADRITLGYKKRLSMIENQMRHLLEDFSLDVQQIEPILADLQKYYDAFLQLLQKRNKSLQCKRSTHQPVPSPMNSQTSTNAKVNLSGKLMKFQLNSVQKFDEENILRILQNKIEFEHYFQIDKGKKQKVLLLAVYQCLNGPTRLHKVLNIEGIIHNNSIRTILGKQVSSSKWTVFLYDVKLVLLAHRQDVPNLETSKMIVRYGDLFPCALYFKDHTAY

The variants in this assay derive from B1. As to the kind of experiment: DHFR protein-fragment complementation in yeast (Abp1-DHFR F[1,2] x partner-DHFR F[3]), deep mutational scanning, second methotrexate selection vs reference; S. cerevisiae, DHFR-PCA selection in liquid with methotrexate at 30 C, two 72 h selections (the score uses the second); reference = the pre-selection culture.
chain 1 MALEPIDYTTHSREIDAEYLKIVRGSDPDTTWLIISPNAKKEYEPESTGSSFHDFLQLFDETKVQYGLARVSPPGSDVEKIIIIGWCPDSAPLKTRASFAANFAAVANNLFKGYHVQVTARDEDDLDENELLMKISNAAGARYSIQTSSKQQGKASTPPVKKSFTPSKSPAPVSKKEPVKTPSPAPAAKISSRVNDNNDDDDWNEPELKERDFDQAPLKPNQSSYKPIGKIDLQKVIAEEKAKEDPRLVQKPTAAGSKIDPSSDIANLKNESKLKRDSEFNSFLGTTKPPSMTESSLKNDDDKVIKGFRNEKSPAQLWAERKAKQNSGNAETKAEAPKPEVPEDEPEGEPDVKDLKSKFEGLAASEKEEEEMENKFAPPPKKSEPTIISPKPFSKPQEPVKAEEAEQPKTDYKKIGNPLPGMHIEADNEEEPEENDDDWDDDEDEAAQPPLPSRNVASGAPVQKEEPEQEEIAPSLPSRNSIPAPKQEEAPEQAPEEEIEEEAEEAAPQLPSRSSAAPPPPPRRATPEKKPKENPWATAEYDYDAAEDNELTFVENDSIINIEFVDDDWWLGELEKDGSKGLFPSNYVSLGN [chain 1 K558S]: the screen value was -0.847 DMS score: mean over two replicates of log2(f_test/f_ref + 0.5)/ln 2, minus the synonymous-codon median (not a log2 …. The result for chain 1 MALEPIDYTTHSREIDAEYLKIVRGSDPDTTWLIISPNAKKEYEPESTGSSFHDFLQLFDETKVQYGLARVSPPGSDVEKIIIIGWCPDSAPLKTRASFAANFAAVANNLFKGYHVQVTARDEDDLDENELLMKISNAAGARYSIQTSSKQQGKASTPPVKKSFTPSKSPAPVSKKEPVKTPSPAPAAKISSRVNDNNDDDDWNEPELKERDFDQAPLKPNQSSYKPIGKIDLQKVIAEEKAKEDPRLVQKPTAAGSKIDPSSDIANLKNESKLKRDSEFNSFLGTTKPPSMTESSLKNDDDKVIKGFRNEKSPAQLWAERKAKQNSGNAETKAEAPKPEVPEDEPEGEPDVKDLKSKFEGLAASEKEEEEMENKFAPPPKKSEPTIISPKPFSKPQEPVKAEEAEQPKTDYKKIGNPLPGMHIEADNEEEPEENDDDWDDDEDEAAQPPLPSRNVASGAPVQKEEPEQEEIAPSLPSRNSIPAPKQEEAPEQAPEEEIEEEAEEAAPQLPSRSSAAPPPPPRRATPEKKPKENPWATAEYDYDAAEDNELTFVEYDKIINIEFVDDDWWLGELEKDGSKGLFPSNYVSLGN [chain 1 N556Y] reads 0.313 DMS score: mean over two replicates of log2(f_test/f_ref + 0.5)/ln 2, minus the synonymous-codon median (not a log2 …; that for chain 1 MALEPIDYTTHSREIDAEYLKIVRGSDPDTTWLIISPNAKKEYEPESTGSSFHDFLQLFDETKVQYGLARVSPPGSDVEKIIIIGWCPDSAPLKTRASFAANFAAVANNLFKGYHVQVTARDEDDLDENELLMKISNAAGARYSIQTSSKQQGKASTPPVKKSFTPSKSPAPVSKKEPVKTPSPAPAAKISSRVNDNNDDDDWNEPELKERDFDQAPLKPNQSSYKPIGKIDLQKVIAEEKAKEDPRLVQKPTAAGSKIDPSSDIANLKNESKLKRDSEFNSFLGTTKPPSMTESSLKNDDDKVIKGFRNEKSPAQLWAERKAKQNSGNAETKAEAPKPEVPEDEPEGEPDVKDLKSKFEGLAASEKEEEEMENKFAPPPKKSEPTIISPKPFSKPQEPVKAEEAEQPKTDYKKIGNPLPGMHIEADNEEEPEENDDDWDDDEDEAAQPPLPSRNVASGAPVQKEEPEQEEIAPSLPSRNSIPAPKQEEAPEQAPEEEIEEEAEEAAPQLPSRSSAAPPPPPRRATPEKKPKENPWATAEYDYDAAEDNELTFVENDKIINIEFVDDDWWCGELEKDGSKGLFPSNYVSLGN [chain 1 L571C], -0.177 DMS score: mean over two replicates of log2(f_test/f_ref + 0.5)/ln 2, minus the synonymous-codon median (not a log2 …; that for chain 1 MALEPIDYTTHSREIDAEYLKIVRGSDPDTTWLIISPNAKKEYEPESTGSSFHDFLQLFDETKVQYGLARVSPPGSDVEKIIIIGWCPDSAPLKTRASFAANFAAVANNLFKGYHVQVTARDEDDLDENELLMKISNAAGARYSIQTSSKQQGKASTPPVKKSFTPSKSPAPVSKKEPVKTPSPAPAAKISSRVNDNNDDDDWNEPELKERDFDQAPLKPNQSSYKPIGKIDLQKVIAEEKAKEDPRLVQKPTAAGSKIDPSSDIANLKNESKLKRDSEFNSFLGTTKPPSMTESSLKNDDDKVIKGFRNEKSPAQLWAERKAKQNSGNAETKAEAPKPEVPEDEPEGEPDVKDLKSKFEGLAASEKEEEEMENKFAPPPKKSEPTIISPKPFSKPQEPVKAEEAEQPKTDYKKIGNPLPGMHIEADNEEEPEENDDDWDDDEDEAAQPPLPSRNVASGAPVQKEEPEQEEIAPSLPSRNSIPAPKQEEAPEQAPEEEIEEEAEEAAPQLPSRSSAAPPPPPRRATPEKKPKENPWATAVYDYDAAEDNELTFVENDKIINIEFVDDDWWLGELEKDGSKGLFPSNYVSLGN [chain 1 E540V], -2.31 DMS score: mean over two replicates of log2(f_test/f_ref + 0.5)/ln 2, minus the synonymous-codon median (not a log2 …. chain 1 MALEPIDYTTHSREIDAEYLKIVRGSDPDTTWLIISPNAKKEYEPESTGSSFHDFLQLFDETKVQYGLARVSPPGSDVEKIIIIGWCPDSAPLKTRASFAANFAAVANNLFKGYHVQVTARDEDDLDENELLMKISNAAGARYSIQTSSKQQGKASTPPVKKSFTPSKSPAPVSKKEPVKTPSPAPAAKISSRVNDNNDDDDWNEPELKERDFDQAPLKPNQSSYKPIGKIDLQKVIAEEKAKEDPRLVQKPTAAGSKIDPSSDIANLKNESKLKRDSEFNSFLGTTKPPSMTESSLKNDDDKVIKGFRNEKSPAQLWAERKAKQNSGNAETKAEAPKPEVPEDEPEGEPDVKDLKSKFEGLAASEKEEEEMENKFAPPPKKSEPTIISPKPFSKPQEPVKAEEAEQPKTDYKKIGNPLPGMHIEADNEEEPEENDDDWDDDEDEAAQPPLPSRNVASGAPVQKEEPEQEEIAPSLPSRNSIPAPKQEEAPEQAPEEEIEEEAEEAAPQLPSRSSAAPPPPPRRATPEKKPKENPWATAEYDYDAAEDNELTFVENDKIINIEHVDDDWWLGELEKDGSKGLFPSNYVSLGN [chain 1 F564H]: the screen value was -2.23 DMS score: mean over two replicates of log2(f_test/f_ref + 0.5)/ln 2, minus the synonymous-codon median (not a log2 ….
